Data: paper PMC5855949
Like-named read-outs stand apart in the source and are kept apart here.

Assays:
[1] = target: T1, lambda cI repressor, hexa-histidine-tagged (bacteriophage lambda, UniProt P03034 1-237); test: filter binding
[2] = target: T1, lambda cI repressor, …; test: filter binding; remark: listed apart in the source

T1 sequence (P03034 whole entry): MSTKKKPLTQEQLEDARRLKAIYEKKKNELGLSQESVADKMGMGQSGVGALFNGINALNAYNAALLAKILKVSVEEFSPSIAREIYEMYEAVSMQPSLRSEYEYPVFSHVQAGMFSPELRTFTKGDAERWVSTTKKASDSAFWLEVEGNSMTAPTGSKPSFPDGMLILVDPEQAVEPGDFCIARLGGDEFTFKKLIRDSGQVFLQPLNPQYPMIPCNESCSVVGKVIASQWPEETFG

B1: aptamer Tarap (Guu(0/-7)) (structured_RNA)
RNA: GGGAUCGACAGGGCUCCCGUUUGGCUCGGCGAAGAUCGCCUGUACUUUGGAAAGCCGAGUCGU
[1]
  Kd: 264 ± 24 nM
[2]
  Kd: 518 ± 96 nM
